Measurements reported in patent US7985567B2, “Host cells and methods for producing 3-methyl-2-buten-1-ol, 3-methyl-3-buten-1-ol, and 3-methyl-butan-1-ol” (The Regents of the University of California, priority 2007, dated 2011).

B1: OYE2: Old yellow enzyme family reductase of S. cerevisiae, gene locus YHR179w (protein, UniProt Q03558 2-400, looked up)
NADPH dehydrogenase 2: PFVKDFKPQALGDTNLFKPIKIGNNELLHRAVIPPLTRMRAQHPGNIPNRDWAVEYYAQRAQRPGTLIITEGTFPSPQSGGYDNAPGIWSEEQIKEWTKIFKAIHENKSFAWVQLWVLGWAAFPDTLARDGLRYDSASDNVYMNAEQEEKAKKANNPQHSITKDEIKQYVKEYVQAAKNSIAAGADGVEIHSANGYLLNQFLDPHSNNRTDEYGGSIENRARFTLEVVDAVVDAIGPEKVGLRLSPYGVFNSMSGGAETGIVAQYAYVLGELERRAKAGKRLAFVHLVEPRVTNPFLTEGEGEYNGGSNKFAYSIWKGPIIRAGNFALHPEVVREEVKDPRTLIGYGRFFISNPDLVDRLEKGLPLNKYDRDTFYKMSAEGYIDYPTYEEALKLGWDKN
B2: OYE3: Old yellow enzyme family reductase of S. cerevisiae, gene locus YPL171c (protein, UniProt P41816 2-400, looked up)
NADPH dehydrogenase 3: PFVKGFEPISLRDTNLFEPIKIGNTQLAHRAVMPPLTRMRATHPGNIPNKEWAAVYYGQRAQRPGTMIITEGTFISPQAGGYDNAPGIWSDEQVAEWKNIFLAIHDCQSFAWVQLWSLGWASFPDVLARDGLRYDCASDRVYMNATLQEKAKDANNLEHSLTKDDIKQYIKDYIHAAKNSIAAGADGVEIHSANGYLLNQFLDPHSNKRTDEYGGTIENRARFTLEVVDALIETIGPERVGLRLSPYGTFNSMSGGAEPGIIAQYSYVLGELEKRAKAGKRLAFVHLVEPRVTDPSLVEGEGEYSEGTNDFAYSIWKGPIIRAGNYALHPEVVREQVKDPRTLIGYGRFFISNPDLVYRLEEGLPLNKYDRSTFYTMSAEGYTDYPTYEEAVDLGWNKN

System: S. cerevisiae BY4741 transformed with pESC expressing a reductase candidate gene
Assay: Screening of reductase candidates for reduction of 3-methyl-2-butenol to 3-methyl-butanol
Format: cell-based, Saccharomyces cerevisiae
Settings: 3-methyl-2-butenol 1 g/l; relative to controls; FIGS. 4 and 5
Procedure: To identify enzymes with the capability to catalyze the reduction 3-methyl-2-butenol to 3-methyl-butanol the following assay system was employed. 5 ml of synthetic defined medium lacking leucine with 1.8% galactose and 0.2% glucose was inoculated with an overnight culture of S. cerevisiae BY4741 freshly transformed with a vector (pESC) expressing a reductase candidate gene to achieve a final absorbance of 0.5 at 600 nm (A600). The cultures were grown at 30° C. at 200 r.p.m. After 48 hours, 3-methyl-2-butenol (1 g/l) was added to the culture.
Cultures were sampled for isopentanol production after addition of 3-methyl-2-butenol as described in Example 3.

Molecule | isopentanol production from 3-methyl-2-butenol by yeast over-expressing the reductase
B1 | significant increase in isopentanol production
B2 | significant increase in isopentanol production
